Results from patent US7939292B2, “Modified heparinase III and methods of sequencing therewith” (Massachusetts Institute of Technology, priority 2000, dated 2011).

Legend:
B16BL6 melanoma = test: Histological examination of tumor samples (apoptosis, TdT labeling); format: in vivo, mice
Description: Immunohistochemistry was done as described (Parangi et al., 1996; O'Reilly et al., 1994) with minor modifications. Briefly, tumor tissues were fixed in either 4% (vol/vol) formaldehyde overnight for von Willebrand factor (vWF) staining and terminal deoxynucleotide transferase (TdT) labeling or in Glyo-Fixx solution overnight for Ki-67 nuclear antigen staining. Tissues were embedded in paraffin according to standard histological procedures. For vWF staining, sections (5 μm thick) were incubated with 0.2 N HCl for 10 min. autoclaved in a Coplin jar immersed with Target retrieval Solution (Dako) for 15 min. and permeabilized with 2 μg/ml proteinase K at 37° C. for 15 min. Sections were incubated with rabbit anti-human vWF antibody coupled with horseradish peroxidase (HRP) (Dako). Positive staining was detected by substrate reaction with diaminobenzidine. Sections were counterstained with Gill's hematoxylin and mounted in Permount (Fisher). […] Capillary density was determined by counting the number of vWF-positive capillaries per high power field (HPF, ×200). The proliferative and apoptotic indices of tumor cells within areas of viable tumor were estimated from the percentage of cells scored under a light microscope at 400-fold magnification. A minimum of 2000 cells were counted in each animal. # indicates standard error.

[1] = tested on: Lewis lung carcinoma (LLC) tumors; test: Primary tumor growth of Lewis lung carcinoma (LLC) in mice; format: in vivo; conditions: 12 mg/kg per day
Description: (§1) To ensure that these observations were not limited to the tumor model chosen, hep III was used to treat mice bearing Lewis lung carcinoma (LLC) tumors. Growth curves of primary tumor growth for LLC tumor in C57BL/6 mice treated with either PBS or heparinase III were plotted. 4×10^5 log phase LLC cells were injected subcutaneously to the flank of mice on day 1. Daily injection of 0.1 ml of either PBS or 2 mg/ml recombinantly expressed heparinase III started at the day 4 and continued throughout the experiment. At day 8, osmotic pumps (100 μl capacity delivering at 0.5 μl per hour) containing PBS or 3 mg/ml hep III were implanted subcutaneously at a place remote from the tumor site. Mice were sacrificed at day 20. Lung metastasis of LLC cells injected through tail vein were quantitated as number of lung nodules. Log growth LLC cells were trypsinized for 30 seconds and resuspended in PBS to a final concentration of 1×10^6 per ml. For experimental group, cells were incubated with […] hep III for 30 minutes at 37° C. before injecting 0.2 ml of cell suspension via tail vein. Mice were euthanized 12 days after tail vein injections, lungs were harvested, rinsed in tap water and fixed overnight in Bouin's solution. The number of nodules on lung surface was counted with the aid of a dissection microscope.

LLC cells = test: Lung metastasis of LLC cells injected through tail vein; format: in vivo, mice; conditions: cells incubated with enzyme before tail vein injection
Description: as §1

Erk-1, 2 = test: Total and phosphorylated Erk-1, 2 in heparinase-treated B16BL6 tumor; parameters: species or system mice; conditions: mouse, in vivo
Description: e. Level of total and phosphorylated Erk-1, 2 in heparinase-treated B16BL6 tumor. Tumor homogenates were prepared and processed as described in c. The supernatant was used for total protein concentration assay and immunoblotting. The immunoblot was detected as described in a.

FAK = test: Activation of FAK in B16BL6 tumor; parameters: species or system mice; conditions: mouse, in vivo
Text: d. Effect of heparinase treatment on activation of FAK in B16BL6 tumor. The FAK protein was immunoprecipitated with mouse anti-FAK monoclonal antibody (Transduction Laboratories, Lexington, Ky.) according to the procedures described above. The phosphorylated FAK was detected using phosphotyrosine specific antibody RC20.

Akt = Akt activation in B16BL6 tumor; parameters: species or system mice; conditions: mouse, in vivo
Description: f. Effect of heparinase treatment on Akt activation. The primary tumor was treated and processed as described above. Akt antibody and phospho-Akt antibody from New England Biolabs were used to probe the immunoblot.

level of activated Erk-1, 2 in primary tumor (Erk-1, 2): lower level of activated Erk-1, 2
B1: heparinase III: HLGAG degrading enzyme from Flavobacterium heparinum (EC 4.2.2.8), SEQ ID NO:2; cleaves heparan sulfate (protein, listed as Pedobacter heparinus)
chain: MTTKIFKRIIVFAVIALSSGNILAQSSSITRKDFDHINLEYSGLEKVNKAVAAGNYDDAAKALLAYYREKSKAREPDFSNAEKPADIRQPIDKVTREMADKALVHQFQPHKGYGYFDYGKDINWQMWPVKDNEVRWQLHRVKWWQAMALVYHATGDEKYAREWVYQYSDWARKNPLGLSQDNDKFVWRPLEVSDRVQSLPPTFSLFVNSPAFTPAFLMEFLNSYHQQADYLSTHYAEQGNHRLFEAQRNLFAGVSFPEFKDSPRWRQTGISVLNTEIKKQVYADGMQFELSPIYHVAAIDIFLKAYGSAKRVNLEKEFPQSYVQTVENMIMALISISLPDYNTPMFGDSWITDKNFRMAQFASWARVFPANQAIKYFATDGKQGKAPNFLSKALSNAGFYTFRSGWDKNATVMVLKASPPGEFHAQPDNGTFELFIKGRNFTPDAGVFVYSGDEAIMKLRNWYRQTRIHSTLTLDNQNMVITKARQNKWETGNNLDVLTYTNPSYPNLDHQRSVLFINKKYFLVIDRAIGEATGNLGVHWQLKEDSNPVFDKTKNRVYTTYRDGNNLMIQSLNADRTSLNEEEGKVSYVYNKELKRPAFVFEKPKKNAGTQNFVSIVYPYDGQKAPEISIRENKGNDFEKGKLNLTLTINGKQQLVLVP
apoptosis in tumor samples, enzyme treated tumors (B16BL6 melanoma): increased apoptosis
LLC tumor growth [1]: inhibition in tumor growth
colonization of lungs by LLC cells (LLC cells): inhibited the LLC cells to colonize in the lungs
FAK activation in tumor (FAK): inhibited FAK activation
activation of Akt in tumor (Akt): no change in activation of Akt
